Data taken from the supplement of paper PMC9732359.
± gives the uncertainty stated by the source.

Experiment: protein stability index of a GFP-peptide fusion (yeast GPS) (PSI 1-4); higher = more stable; sorted into four equal gates, so the index is relative within each strain
Summary of the method: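 The protein stability index of a peptide was calculated by multiplying its read frequency in each gate by that gate's number and adding the products. The peptides were tiled 17-residue stretches of yeast proteins, fused downstream of GFP on a Cherry-expressing plasmid and carried in yeast as a pooled library. Mid-log cultures in leucine-free medium were sorted into four equal gates by GFP/Cherry ratio, and each gate's plasmids were PCR-amplified and Illumina-sequenced.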

Sequence	protein stability index (doa10∆)	protein stability index (pdr5∆)	protein stability index (san1∆)	protein stability index (ubr1∆)
NMYTSTQKTELEIDNKD [SIR4]	3.04 ± 0.069	3.01 ± 0.081	3.04 ± 0.068	3.06 ± 0.065
KIYINLALGSHNKLIQF [SSN2]	2.57 ± 0.17	1.83 ± 0.078	2.13 ± 0.11	2.22 ± 0.071
SKNCYLSEATESDLYKL [RPB2]	3.02 ± 0.12	3.22 ± 0.14	2.9 ± 0.17	2.75 ± 0.093
EILYYQIKTLPEQYSDI [AAR2]	2.9 ± 0.081	3.14 ± 0.084	2.77 ± 0.067	2.91 ± 0.046
YVNALADVLYKTAFKPH [QCR2]	3.04 ± 0.054	3.06 ± 0.048	2.72 ± 0.038	2.81 ± 0.05
QCPVKSAEDQLYAITFR [QCR2]	3.14 ± 0.12	2.83 ± 0.25	3.13 ± 0.14	3.09 ± 0.16
ERTKLQEHTIFTQLKKN [SNU114]	1.46 ± 0.057	2 ± 0.056	1.97 ± 0.084	1.58 ± 0.039
EPLTEIKNVIVSNRVAA [RPP0]	1.6 ± 0.076	2.1 ± 0.062	1.77 ± 0.11	1.95 ± 0.07
TFENINSLFYLKWSACT [IRR1]	1.26 ± 0.082	1.35 ± 0.082	1.27 ± 0.17	1.21 ± 0.051
LKKKVVDPFTRKEWFDI [RPS1B]	2.97 ± 0.075	3.18 ± 0.071	3.18 ± 0.045	2.88 ± 0.049
GKLKRCSRCGSVTRAGN [SIN4]	–	–	–	3.34 ± 0.16
RGKDGKLHVAAKLPGHK [YGL100W/SEH1]	3.31 ± 0.14	3.13 ± 0.14	–	2.7 ± 0.16
SVHLIECYKQLFLTAPD [YCS4]	1.52 ± 0.24	–	–	–
VDLIEKFLRYNPLEKRD [RPB10]	2.91 ± 0.14	3.27 ± 0.12	3.23 ± 0.071	3.11 ± 0.041
SNAFYSVLRDTLVAQNL [SMC4]	2.13 ± 0.086	2.09 ± 0.054	1.94 ± 0.076	2.13 ± 0.033
AVAASSTKTGTPSDLSE [POP1]	3.3 ± 0.084	3.26 ± 0.077	3.41 ± 0.045	3.33 ± 0.035
GLFQVLHNFESVAPTKQ [NUT1]	2.99 ± 0.075	2.87 ± 0.075	2.75 ± 0.052	3.12 ± 0.035
TPNLWAEQPLPVSPLDI [RPS2]	1.41 ± 0.045	2.07 ± 0.06	2.31 ± 0.056	1.58 ± 0.066
TEEKCKNFIESESVGAF [YJL039C/NUP192]	3.43 ± 0.15	3.23 ± 0.088	3.33 ± 0.062	3.47 ± 0.056
FERIMILDPQVTRFTTW [YJL039C/NUP192]	1.06 ± 0.077	1.33 ± 0.073	1.22 ± 0.12	1.23 ± 0.062
TTTMLQLFSTFDRLNGN [SSN2]	3.08 ± 0.076	3.12 ± 0.073	3.28 ± 0.055	3.02 ± 0.041
SMRTIMKANPALYVLRE [PRP8]	–	1.91 ± 0.29	–	1.37 ± 0.28
SDKIPYVAPTKKEYIEL [SRB4]	2.77 ± 0.1	2.7 ± 0.1	2.32 ± 0.11	2.8 ± 0.12
KRKTNIIMFVGLQGSGK [SRP54]	2.69 ± 0.067	2.78 ± 0.068	3.09 ± 0.06	2.87 ± 0.038
QFSYVDSSMTTVQENEL [AAR2]	2.62 ± 0.044	2.99 ± 0.05	2.98 ± 0.04	2.95 ± 0.052
HELSRAELEELEEFEFK [SMD2]	3.26 ± 0.072	3.3 ± 0.071	3.42 ± 0.059	3.45 ± 0.055
PQFDSTQPKSSSSMDMQ [SSN3]	2.94 ± 0.069	3 ± 0.068	2.95 ± 0.05	3.02 ± 0.044
